No end group written: not given here.
How the values were obtained:
Experiment in all cases: Kinase Profiling Assay
Assay type in all cases: biochemical
Conditions in all cases: peptide 100 μM
Arg(h) = Arg(h) (Homo sapiens, UniProt P42684)
Summary of the method: (§1)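 Each kinase activity was measured in duplicate. Phosphorylation of a positively charged substrate with radiolabeled phosphate from ATP was captured on a negatively charged filter, counted by scintillation and expressed relative to a 100% activity control. MK2 inhibitory peptides were screened for specificity across 266 human kinases.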

BTK(R28H)(h) = BTK(R28H)(h) (Homo sapiens, UniProt Q06187, R28H)
Summary of the method: as §1

CDK2/cyclinE(h) = CDK2/cyclinE(h) (Homo sapiens, UniProt P24941)
Summary of the method: as §1

CDK3/cyclinE(h) = CDK3/cyclinE(h) (Homo sapiens, UniProt Q00526)
Summary of the method: as §1

FAK(h) = FAK(h) (Homo sapiens, UniProt Q05397)
Summary of the method: as §1

Flt3(D835Y)(h) = Flt3(D835Y)(h) (Homo sapiens, UniProt P36888, D835Y)
Summary of the method: as §1

HIPK2(h) = molecular target: T1, HIPK2(h) (Homo sapiens, UniProt Q9H2X6)
T1 construct: purchased Millipore
Summary of the method: as §1

IRR(h) = molecular target: T2, IRR(h) (Homo sapiens, UniProt P14616)
T2 construct: purchased Millipore
Summary of the method: as §1

JNK3(h) = molecular target: T3, JNK3(h) (Homo sapiens, UniProt P53779)
T3 construct: purchased Millipore
Summary of the method: as §1

Lyn(h) = molecular target: T4, Lyn(h) (Homo sapiens, UniProt P07948)
T4 construct: purchased Millipore
Summary of the method: as §1

MRCKα(h) = molecular target: T5, MRCKα(h) (Homo sapiens, UniProt Q5VT25)
T5 construct: purchased Millipore
Summary of the method: as §1

Met(Y1248D)(h) = molecular target: T6, Met(Y1248D)(h) (Homo sapiens, UniProt P08581, Y1230D)
T6 construct: purchased Millipore
Summary of the method: as §1

Pyk2(h) = Pyk2(h) (Homo sapiens, UniProt Q14289)
Summary of the method: as §1

SGK2(h) = molecular target: T7, SGK2(h) (Homo sapiens, UniProt Q9HBY8)
T7 construct: purchased Millipore
T7 sequence (Q9HBY8 1-367): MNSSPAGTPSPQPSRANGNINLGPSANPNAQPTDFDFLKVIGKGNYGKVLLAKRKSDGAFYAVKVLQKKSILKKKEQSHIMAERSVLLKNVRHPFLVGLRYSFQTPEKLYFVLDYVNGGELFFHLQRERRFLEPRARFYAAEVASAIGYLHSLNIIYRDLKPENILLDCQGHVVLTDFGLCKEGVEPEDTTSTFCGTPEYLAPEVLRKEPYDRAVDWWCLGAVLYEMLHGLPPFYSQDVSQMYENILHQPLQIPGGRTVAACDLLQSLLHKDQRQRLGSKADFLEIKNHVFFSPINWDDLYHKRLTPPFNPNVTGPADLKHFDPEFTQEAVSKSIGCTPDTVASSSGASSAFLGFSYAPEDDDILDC
Summary of the method: as §1

TAO2(h) = molecular target: T8, TAO2(h) (Homo sapiens, UniProt Q9UL54)
T8 construct: purchased Millipore
T8 sequence (Q9UL54 1-1235): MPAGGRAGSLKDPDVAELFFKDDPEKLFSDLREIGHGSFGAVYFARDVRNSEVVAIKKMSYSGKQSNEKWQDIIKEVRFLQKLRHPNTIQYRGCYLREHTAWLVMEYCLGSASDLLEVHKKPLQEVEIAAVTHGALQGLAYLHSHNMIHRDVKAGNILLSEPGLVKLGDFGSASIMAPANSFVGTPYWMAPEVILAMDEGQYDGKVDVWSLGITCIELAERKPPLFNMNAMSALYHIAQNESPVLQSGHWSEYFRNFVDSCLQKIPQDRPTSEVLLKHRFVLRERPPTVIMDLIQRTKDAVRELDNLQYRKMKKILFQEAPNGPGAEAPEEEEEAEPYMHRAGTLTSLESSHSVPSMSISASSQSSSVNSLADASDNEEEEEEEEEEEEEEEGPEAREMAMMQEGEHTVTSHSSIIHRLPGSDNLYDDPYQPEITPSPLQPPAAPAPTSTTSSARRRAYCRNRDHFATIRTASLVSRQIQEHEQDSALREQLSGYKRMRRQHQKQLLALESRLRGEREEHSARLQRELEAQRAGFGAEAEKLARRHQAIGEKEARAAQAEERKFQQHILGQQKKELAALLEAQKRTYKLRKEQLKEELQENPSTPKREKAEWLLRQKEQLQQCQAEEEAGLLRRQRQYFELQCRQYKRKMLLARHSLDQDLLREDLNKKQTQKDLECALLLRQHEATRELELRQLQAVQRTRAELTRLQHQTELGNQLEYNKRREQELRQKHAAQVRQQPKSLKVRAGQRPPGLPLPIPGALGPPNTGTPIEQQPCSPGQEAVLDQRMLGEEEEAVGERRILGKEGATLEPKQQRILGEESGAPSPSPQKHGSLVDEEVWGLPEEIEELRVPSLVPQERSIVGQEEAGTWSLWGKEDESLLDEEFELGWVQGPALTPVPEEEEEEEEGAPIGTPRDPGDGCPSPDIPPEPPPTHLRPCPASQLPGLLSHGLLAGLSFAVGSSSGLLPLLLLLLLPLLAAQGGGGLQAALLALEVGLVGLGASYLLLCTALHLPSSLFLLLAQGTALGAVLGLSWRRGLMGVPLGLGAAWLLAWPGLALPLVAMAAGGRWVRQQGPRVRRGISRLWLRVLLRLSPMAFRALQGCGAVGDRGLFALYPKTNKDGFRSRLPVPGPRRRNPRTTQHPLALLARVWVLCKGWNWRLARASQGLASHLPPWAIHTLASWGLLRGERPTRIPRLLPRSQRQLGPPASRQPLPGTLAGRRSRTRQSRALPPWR
Summary of the method: as §1

TrkA(h) = TrkA(h) (Homo sapiens, UniProt P04629)
Summary of the method: as §1

WNK3(h) = WNK3(h) (Homo sapiens, UniProt Q9BYP7)
Summary of the method: as §1

T3 sequence (P53779 whole entry): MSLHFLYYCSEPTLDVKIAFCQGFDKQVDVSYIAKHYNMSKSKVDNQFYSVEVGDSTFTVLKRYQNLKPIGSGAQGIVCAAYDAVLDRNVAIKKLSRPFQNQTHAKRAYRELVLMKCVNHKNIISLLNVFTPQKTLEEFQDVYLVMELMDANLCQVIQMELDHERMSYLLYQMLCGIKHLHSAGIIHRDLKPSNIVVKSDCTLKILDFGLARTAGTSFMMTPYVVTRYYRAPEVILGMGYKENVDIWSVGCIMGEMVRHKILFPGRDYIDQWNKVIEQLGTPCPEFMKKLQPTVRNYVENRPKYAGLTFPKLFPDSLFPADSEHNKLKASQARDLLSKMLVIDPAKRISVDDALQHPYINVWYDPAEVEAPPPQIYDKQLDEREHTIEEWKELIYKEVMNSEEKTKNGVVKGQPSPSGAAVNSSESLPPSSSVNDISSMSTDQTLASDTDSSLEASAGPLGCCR
T1 sequence (Q9H2X6 whole entry): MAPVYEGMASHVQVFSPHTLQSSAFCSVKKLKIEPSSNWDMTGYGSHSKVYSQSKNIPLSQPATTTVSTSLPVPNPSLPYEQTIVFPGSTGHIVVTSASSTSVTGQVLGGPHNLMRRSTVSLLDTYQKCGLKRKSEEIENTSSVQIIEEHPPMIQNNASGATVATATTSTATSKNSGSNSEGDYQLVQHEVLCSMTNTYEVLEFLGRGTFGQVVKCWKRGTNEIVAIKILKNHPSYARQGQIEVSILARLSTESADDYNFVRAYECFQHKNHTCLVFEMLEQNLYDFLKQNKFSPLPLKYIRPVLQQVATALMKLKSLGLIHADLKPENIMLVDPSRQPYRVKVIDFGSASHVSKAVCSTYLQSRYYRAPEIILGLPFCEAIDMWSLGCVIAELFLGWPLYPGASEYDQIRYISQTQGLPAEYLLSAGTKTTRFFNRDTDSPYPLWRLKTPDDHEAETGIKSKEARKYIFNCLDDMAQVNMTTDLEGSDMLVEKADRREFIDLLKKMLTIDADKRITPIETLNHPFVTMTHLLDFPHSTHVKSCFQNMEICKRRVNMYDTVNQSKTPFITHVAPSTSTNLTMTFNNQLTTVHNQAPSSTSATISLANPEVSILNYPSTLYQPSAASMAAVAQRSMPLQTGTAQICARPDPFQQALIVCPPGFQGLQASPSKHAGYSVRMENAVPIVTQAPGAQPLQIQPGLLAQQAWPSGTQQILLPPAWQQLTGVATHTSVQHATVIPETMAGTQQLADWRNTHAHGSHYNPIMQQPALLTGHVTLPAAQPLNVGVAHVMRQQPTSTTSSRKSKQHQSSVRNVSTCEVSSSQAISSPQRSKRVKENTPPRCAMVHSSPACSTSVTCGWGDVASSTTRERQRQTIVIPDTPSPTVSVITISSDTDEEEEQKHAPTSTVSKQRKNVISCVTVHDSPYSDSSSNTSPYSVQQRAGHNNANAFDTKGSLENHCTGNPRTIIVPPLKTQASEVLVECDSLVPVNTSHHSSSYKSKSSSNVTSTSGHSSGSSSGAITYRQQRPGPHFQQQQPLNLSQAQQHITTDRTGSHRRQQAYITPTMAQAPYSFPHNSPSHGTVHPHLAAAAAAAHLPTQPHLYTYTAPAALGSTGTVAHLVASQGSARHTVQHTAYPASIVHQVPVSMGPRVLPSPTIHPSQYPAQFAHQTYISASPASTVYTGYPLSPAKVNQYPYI
T2 sequence (P14616 27-1297): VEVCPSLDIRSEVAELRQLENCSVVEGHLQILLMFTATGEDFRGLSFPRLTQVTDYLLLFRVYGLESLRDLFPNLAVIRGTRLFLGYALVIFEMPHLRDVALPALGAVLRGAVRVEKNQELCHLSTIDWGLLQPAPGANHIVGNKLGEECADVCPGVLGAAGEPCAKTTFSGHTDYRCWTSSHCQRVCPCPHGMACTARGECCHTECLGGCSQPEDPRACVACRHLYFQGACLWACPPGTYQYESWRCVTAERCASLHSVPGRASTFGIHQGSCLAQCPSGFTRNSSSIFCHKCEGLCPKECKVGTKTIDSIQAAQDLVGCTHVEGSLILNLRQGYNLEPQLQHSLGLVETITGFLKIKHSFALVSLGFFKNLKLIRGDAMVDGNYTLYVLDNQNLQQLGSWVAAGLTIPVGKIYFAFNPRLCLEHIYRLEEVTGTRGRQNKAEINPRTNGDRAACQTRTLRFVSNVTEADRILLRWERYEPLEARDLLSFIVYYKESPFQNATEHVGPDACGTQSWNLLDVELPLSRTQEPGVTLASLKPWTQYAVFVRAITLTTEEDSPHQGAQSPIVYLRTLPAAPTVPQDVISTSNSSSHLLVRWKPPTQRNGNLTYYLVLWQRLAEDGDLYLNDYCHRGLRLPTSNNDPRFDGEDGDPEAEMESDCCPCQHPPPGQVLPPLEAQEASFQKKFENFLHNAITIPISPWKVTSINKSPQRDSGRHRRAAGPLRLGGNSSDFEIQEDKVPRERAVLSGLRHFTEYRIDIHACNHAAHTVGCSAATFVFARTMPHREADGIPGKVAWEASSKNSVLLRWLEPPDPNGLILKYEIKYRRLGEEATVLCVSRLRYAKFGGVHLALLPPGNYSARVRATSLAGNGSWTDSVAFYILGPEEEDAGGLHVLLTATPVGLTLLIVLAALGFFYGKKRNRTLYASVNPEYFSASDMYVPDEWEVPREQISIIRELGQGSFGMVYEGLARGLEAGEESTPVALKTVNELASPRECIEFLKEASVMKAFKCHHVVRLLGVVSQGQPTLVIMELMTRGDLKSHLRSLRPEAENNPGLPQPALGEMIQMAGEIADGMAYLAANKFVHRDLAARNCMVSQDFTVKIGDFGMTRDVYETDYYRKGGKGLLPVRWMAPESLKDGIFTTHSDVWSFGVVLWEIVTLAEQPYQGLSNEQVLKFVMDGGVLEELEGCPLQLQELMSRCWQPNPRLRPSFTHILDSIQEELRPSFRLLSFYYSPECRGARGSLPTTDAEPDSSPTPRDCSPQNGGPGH
Chain of TrkA(h) (P04629 33-796): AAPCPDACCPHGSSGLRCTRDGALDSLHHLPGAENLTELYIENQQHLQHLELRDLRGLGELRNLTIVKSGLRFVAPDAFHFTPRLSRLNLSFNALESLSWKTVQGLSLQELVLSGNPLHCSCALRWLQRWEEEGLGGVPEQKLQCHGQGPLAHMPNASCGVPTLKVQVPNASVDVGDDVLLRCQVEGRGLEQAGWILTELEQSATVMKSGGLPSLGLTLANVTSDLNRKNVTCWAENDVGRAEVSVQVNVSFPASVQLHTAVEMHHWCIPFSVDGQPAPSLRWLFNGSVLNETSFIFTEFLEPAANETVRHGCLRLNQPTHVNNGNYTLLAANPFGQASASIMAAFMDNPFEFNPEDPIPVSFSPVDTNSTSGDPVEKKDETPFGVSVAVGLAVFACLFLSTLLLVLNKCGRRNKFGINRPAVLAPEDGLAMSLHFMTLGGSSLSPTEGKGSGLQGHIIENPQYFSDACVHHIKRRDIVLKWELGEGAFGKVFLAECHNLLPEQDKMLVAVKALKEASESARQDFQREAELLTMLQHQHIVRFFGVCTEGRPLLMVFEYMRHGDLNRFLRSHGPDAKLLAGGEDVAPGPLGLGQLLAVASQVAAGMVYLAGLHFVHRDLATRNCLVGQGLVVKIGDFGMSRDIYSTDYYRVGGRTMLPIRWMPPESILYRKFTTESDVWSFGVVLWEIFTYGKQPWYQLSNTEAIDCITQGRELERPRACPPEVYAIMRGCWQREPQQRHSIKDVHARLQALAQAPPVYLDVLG
T4 sequence (P07948 whole entry): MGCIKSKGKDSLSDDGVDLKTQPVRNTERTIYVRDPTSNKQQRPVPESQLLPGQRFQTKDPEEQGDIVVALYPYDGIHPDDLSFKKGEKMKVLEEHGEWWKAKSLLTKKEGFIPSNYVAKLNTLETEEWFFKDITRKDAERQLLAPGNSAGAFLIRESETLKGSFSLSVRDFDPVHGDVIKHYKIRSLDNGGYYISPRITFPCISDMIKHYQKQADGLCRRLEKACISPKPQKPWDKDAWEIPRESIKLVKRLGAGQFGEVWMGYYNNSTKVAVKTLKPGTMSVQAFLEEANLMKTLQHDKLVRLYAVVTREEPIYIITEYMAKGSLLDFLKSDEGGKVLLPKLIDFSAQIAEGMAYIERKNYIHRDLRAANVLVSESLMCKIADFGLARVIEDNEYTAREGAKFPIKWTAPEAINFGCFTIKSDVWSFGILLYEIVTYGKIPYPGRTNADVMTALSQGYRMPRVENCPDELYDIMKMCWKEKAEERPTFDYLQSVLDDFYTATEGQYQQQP
Chain of BTK(R28H)(h) (Q06187 whole entry R28H): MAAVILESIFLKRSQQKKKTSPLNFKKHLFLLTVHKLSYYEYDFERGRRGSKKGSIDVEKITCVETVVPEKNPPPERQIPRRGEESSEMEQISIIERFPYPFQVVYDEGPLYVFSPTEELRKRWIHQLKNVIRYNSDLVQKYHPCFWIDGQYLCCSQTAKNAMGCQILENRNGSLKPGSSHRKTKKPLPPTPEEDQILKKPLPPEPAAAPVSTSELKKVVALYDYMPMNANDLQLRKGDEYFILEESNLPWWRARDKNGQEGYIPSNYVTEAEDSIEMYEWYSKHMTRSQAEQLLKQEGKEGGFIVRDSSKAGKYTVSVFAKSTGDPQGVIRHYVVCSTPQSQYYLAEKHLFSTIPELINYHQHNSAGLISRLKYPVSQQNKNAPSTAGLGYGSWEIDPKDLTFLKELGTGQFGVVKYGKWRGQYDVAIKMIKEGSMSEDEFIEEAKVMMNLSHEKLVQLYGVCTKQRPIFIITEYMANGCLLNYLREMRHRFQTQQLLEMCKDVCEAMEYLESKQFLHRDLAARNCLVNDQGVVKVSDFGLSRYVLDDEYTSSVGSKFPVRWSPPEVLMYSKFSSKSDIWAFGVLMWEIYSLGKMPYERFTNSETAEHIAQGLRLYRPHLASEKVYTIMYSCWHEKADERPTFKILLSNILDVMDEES

Row | Sequence | % activity (Arg(h)) [%] | % activity (BTK(R28H)(h)) [%] | % activity (CDK2/cyclinE(h)) [%] | % activity (CDK3/cyclinE(h)) [%] | % activity (FAK(h)) [%] | % activity (Flt3(D835Y)(h)) [%] | % activity (HIPK2(h)) [%] | % activity (IRR(h)) [%] | % activity (JNK3(h)) [%] | % activity (Lyn(h)) [%] | % activity (MRCKα(h)) [%] | % activity (Met(Y1248D)(h)) [%] | % activity (Pyk2(h)) [%] | % activity (SGK2(h)) [%] | % activity (TAO2(h)) [%] | % activity (TrkA(h)) [%] | % activity (WNK3(h)) [%]
1 | HRRIKAWLKKIKALARQLGVAA (Mammal) [MMI-0500] | 22 | 10 | 19 | 8 | 94 | 65 | 38 | 10 | 171 | 31 | 5 | 218 | 46 | -1 | 15 | 24 | 9
2 | YARAAARQARAKALNRQLGVA (Mammal) [MMI-0200] | 82 | – | – | – | 110 | – | – | 69 | 90 | 98 | – | 118 | 127 | – | 93 | – | 97
3 | YARAAARQARAKALARQLGVAA [MMI-0100] | – | 91 | – | – | – | 120 | 98 | 85 | – | – | 98 | 87 | – | – | 95 | 74 | 100
4 | FAKLAARLYRKALARQLGVAA [MMI-0300] | 72 | 74 | 94 | 94 | – | 80 | 73 | 8 | 89 | 69 | – | – | 47 | 56 | 70 | 25 | 77
5 | KAFAKLAARLYRKALARQLGVAA [MMI-0400] | 84 | 24 | 83 | 92 | 96 | 71 | 90 | 8 | 70 | 3 | 97 | 31 | 34 | 98 | 74 | 17 | 74

— US20150258192A1, “COMPOSITIONS AND METHODS FOR PREVENTING OR TREATING CHRONIC LUNG ALLOGRAFT DYSFUNCTION (CLAD) AND IDIOPATHIC PULMONARY FIBROSIS (IPF)” (priority 2014, published 2015)
